Experimental data from patent US20240317871A1 (IMMUNOMIC THERAPEUTICS, published 2024).
Changes are numbered by the printed parent chain.

T1: murine HVEM (murine, UniProt Q80WM9 39-206, limits assumed)
T1 construct: also called Mouse
T1 sequence (looked up): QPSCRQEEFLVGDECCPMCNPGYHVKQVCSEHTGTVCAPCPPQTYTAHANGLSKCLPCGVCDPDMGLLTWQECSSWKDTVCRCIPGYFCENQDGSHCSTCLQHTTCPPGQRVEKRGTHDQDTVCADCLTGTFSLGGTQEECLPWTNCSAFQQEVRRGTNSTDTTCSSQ

T2: human HVEM (human, UniProt Q92956 39-202, limits assumed)
T2 sequence (looked up): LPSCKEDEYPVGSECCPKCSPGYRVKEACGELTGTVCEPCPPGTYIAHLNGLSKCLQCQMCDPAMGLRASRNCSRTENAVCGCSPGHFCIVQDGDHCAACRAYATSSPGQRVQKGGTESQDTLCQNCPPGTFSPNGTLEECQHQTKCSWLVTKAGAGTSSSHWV

T3: cynomolgus monkey HVEM (cynomolgus monkey, UniProt A0A2K5W0R1 39-203)
T3 sequence: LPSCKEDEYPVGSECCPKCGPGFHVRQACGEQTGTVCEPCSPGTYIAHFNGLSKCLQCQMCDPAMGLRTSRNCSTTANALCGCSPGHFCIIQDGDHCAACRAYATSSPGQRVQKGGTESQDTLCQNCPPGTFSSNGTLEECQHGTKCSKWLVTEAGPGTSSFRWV

T4: Human HEVM recombinant protein (Sino Biological, 10334-H02H) (human, UniProt Q92956 39-202)
T4 construct: construct known only by catalogue number; also called HVEM; human HVEM
T4 sequence (looked up): T2 sequence (looked up)

T5: His-tagged human HVEM (human, UniProt Q92956 39-202, limits assumed)
T5 construct: Analyte of the BLI assay, 200 nM in PBS; not shown: His tag
T5 sequence (looked up): T2 sequence (looked up)

B1: Ab_010 (H5S14-10A9A) (antibody, V domains shown)
VH: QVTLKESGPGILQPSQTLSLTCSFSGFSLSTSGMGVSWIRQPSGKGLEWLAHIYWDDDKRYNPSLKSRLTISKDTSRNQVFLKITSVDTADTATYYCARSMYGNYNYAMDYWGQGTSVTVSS
VL: DIQMTQSPASLSASVGETVTITCRASENIYSYLAWYQQKQGKSPQLLVYNAKTLAEGVPSRFSGSGSGTQFSLKINSLQPEDFGSYYCQHHYGTMYTFGGGTKLEIK
notes: also called Ab_10
B2: Ab_009 (H5S14-8A7A) (antibody, V domains shown)
VH: EVKLVESGGDLVKPGGSLKLSCAASGFTFSNYAMSWVRQTPEKRLEWVASISTGGTTSYYSDSVKGRFTISRDNARNILYLQMSSLRSEDTAMYYCARGGGGNYFWFTYWGQGTLVTISA
VL: DVVMTQTPLSLPVSLGDQASISCRSSQSLVHSNGNTYLHWYLQKPGQSPKLLIYKVSNRFSGVPDRFSGSGSGTDFTLKISRVEAEDLGVYFCSQSTHVPFTFGSGTKLEIK
notes: also called Ab_9
B3: Ab_054 (H5S19-21A17C) (antibody, V domains shown)
VH: QVQLKESGPGLVAPSQSLSITCTVSGFSLTSYGVHWVRQPPGKGLEWLGVIWAGGITNYNSALMSRLSISTDNSRSQVFLKMNSLQTDDTAMYYCARDWERDSSGPFPYWGQGTLVTVSA
VL: DIQMTQTTSSLSASLGDRVTISCSASQGISNYLNWYQQKPDGTVKLLIYYTSSLHSGVPSRFSGSGSGTDYSLTISNLEPEDIATYFCQQYSKLPWTFGGGTKLEIK
notes: also called Ab_54
B4: Ab_087 (H5S20-59A43A) (antibody, V domains shown)
VH: EVKLVESGGGLVKPGGSLKLSCAASGFTFSSYAMSWVRQTPEKRLEWVASISSGSSTYYPDSVKGRFTISRDNARNILYLQMSSLRSEDTAMYYCAKGRGYGNYLYAMDYWGQGTSVTVSS
VL: DIVMTQSQKFMSTSVGDRVSVTCKASQNVGTNVAWYQQKPGQSPKALIYSASYRYSGVPDRFTGSGSGTDFTLTISNVQSEDLAEYFCQQYNSYPLTFGGGTKLEIK
notes: also called Ab_87
B5: Ab_029 (H5S15-14A14B) (antibody, V domains shown)
VH: EVQLQQSGPELVKPGASVKMSCKASGYTFTSYVMHWVKQKPGQGLEWIGYINPYNDDTNCNEKFKGKATLTSDKSSSTAYMELSRLTSEDSAVYYCAKARGYGSTFYYSMDYWGQGTSVTVSS
VL: B4 VL with K39R, A46S, E85D, L96Y, T102A
notes: also called Ab_29
B6: Ab_028 (H5S15-33A29A) (antibody, V domains shown)
VH: QVQLKQSGPGLVQPSQSLSITCTVSGFSLTTYGVHWVRQSPGKGLEWLGVIWSGGNTDYNPAFISRLSISKDNSKSQVFFKMNTLQASDTAIYYCARRGYNKGYAMDYWGQGTSFTVSS
VL: EIVLTQSPALMTASPGEKVTITCSVSSTISSRNLHWYQQKSEASPKPWIYGTSNLASGVPVRFSGSGSGTSYSLTISSMEAEDAATYYCQQWNSYPLTFGSGTKLEIK
notes: also called Ab_28
B7: Ab_025 (H5S15-2A2A) (antibody, V domains shown)
VH: EVQLQQSGAELVKPGASVKLSCTASGFNIKDTYMHWVKQRPEQGLEWIGRIDPANDNTKYDPKFQGKATITADTSSNTAYLQLSSLTSEDTAVYYCARVYYAMDYWGQGTSVTVSS
VL: DIQMTQSPASLSASVGETVTITCRASENIYSYLAWYQQKQGKSPQLLVYNAKTLAEGVPSRFSGSGSGTQFSLKINSLQPEDFGSYYCQHHYGTYTFGGGTKLEIK
notes: also called Ab_25
B8: Ab_074 (H5S20-52A21A) (antibody, V domains shown)
VH: EVQLQQSGAELVKPGASVKLSCTASGFNIKDTYIHWLNQRPEQGLEWIGRIDPANGKTKFAPKFQDKATITADTSSNTAYLQLSSLTSEDTAVYYCAGYGNSPWFAYWGQGTLVTVSA
VL: DVLMTQTPLSLPVSLGDQASISCRSSQSIVHSNGNTYLEWYLQKPGQSPKLLIYKVSNRVSGVPDRFSGSGSGTDFTLKISRVEAEDLGVYYCFQGSHVPLTFGAGTKLELK
notes: also called Ab_74
B9: Ab_083 (H5S20-49A39A) (antibody, V domains shown)
VH: EVQLQQSGAELVKPGASVKLSCTASGFNIKDTYVHWVKERPEQGLEWIGRIDPANDNTKYAPKFQVKATITADTSSNTAYLQLSSLTSEDNAVYYCAPYGNYPAWFAYWGQGTLVTVSA
VL: B8 VL with A19V, S28N, V60F
notes: also called Ab_153; Ab_83
B10: Ab_026 (H5S15-11A3B) (antibody, V domains shown)
VH: EVQLQQSGADLVKPGASVKLSCTASGFNIKDTYMHWVKQRPEQGLEWIGRIAPANGRTKYDPKFQGKATITADTSSNTAYLQLSSLTSEDTAVYYCANYYASSYDWFAYWGQGTLVTVSA
VL: B8 VL with P12T, D17H, V60F
notes: also called Ab_26
B11: Ab_027 (H5S15-17A16A) (antibody, V domains shown)
VH: B10 VH with D10E, R57K, Y60F, A101G, S102R, Y104N, A108V
VL: B8 VL with N35I, K50E, V60F
notes: also called Ab_27
B12: Ab_079 (H5S20-22A18A) (antibody, V domains shown)
VH: EVQLQQSGAELVKPGASVKLSCTASGFNIKDTYMHWVKQRPEQGLEWIGRIDPANGNTKYAPKFQGKATITADTSSNTAYLQLSSLTSEDTAVYYCARSFGNYFDYWGQGTTLTVSS
VL: NIVLTQSPASLAVSLGQRATISCRASESVDSYGNSFMHWYQQKPGQPPKLLIYLASNLESGVPARFSGSGSRTDFTLTIDPVEADDAATYYCQQNYADPWTFGGGTKLEIK
notes: also called Ab_79

The binders below were run against T1, murine HVEM (assay: ELISA).

| Binder | ELISA signal |
| --- | --- |
| B1 | 0.044 |
| B2 | 0.047 |
| B3 | 0.042 |
| B4 | 0.045 |
| B5 | 0.045 |
| B6 | 0.05 |
| B7 | 0.045 |
| B8 | 0.044 |
| B9 | 0.043 |
| B10 | 0.043 |
| B11 | 0.043 |
| B12 | 0.054 |

The binders below were run against T2, human HVEM (assay: ELISA).

| Binder | ELISA signal |
| --- | --- |
| B1 | 2.68 |
| B2 | 3.11 |
| B3 | 2.5 |
| B4 | 3.22 |
| B5 | 3.33 |
| B6 | 3.16 |
| B7 | 3.01 |
| B8 | 3.26 |
| B9 | 3.19 |
| B10 | 3.1 |
| B11 | 3.13 |
| B12 | 2.97 |

These binders were tested against T3, cynomolgus monkey HVEM (assay: ELISA).

| Binder | ELISA signal |
| --- | --- |
| B1 | 0.068 |
| B2 | 1.88 |
| B3 | 2.23 |
| B4 | 0.069 |
| B5 | 0.068 |
| B6 | 2.19 |
| B7 | 3.16 |
| B8 | 0.06 |
| B9 | 0.06 |
| B10 | 0.088 |
| B11 | 0.064 |
| B12 | 0.062 |

These binders were tested against T4, Human HEVM recombinant protein (Sino …) (assay: competition ELISA, competitor BTLA-His).
Method: (§1) The competitive activity of HVEM antibody to BTLA or LIGHT was evaluated with ELISA-based competitive assay. Briefly Human HEVM recombinant protein (Sino Biological, 10334-H02H, 4 ug/ml, 100 ul/well) was coated to ELISA plate (Thermo Scientific, 469949, 4C overnight). A pre-mixture of HVEM antibody clone with seral dilution and 400 nM BTLA-His (R&D systems, 9235-BT-050) or LIGHT-His (SinoBiological, 10386-H07H) recombinant protein was made and added to the ELISA plate after blocking with 3% BSA (200 ul/well, RT 2 Hr) for 1 Hr at RT. The serial dilutions of HVEM antibody clone involve 7 different concentrations, with a 3-fold dilution performed start from 100 nM for BTLA or 325 nM for LIGHT competitive assay. The concentration was the final concentration. Plate was washed with PBST; diluted HRP-anti-His (Biolegend, 652504, 1:1000) with PBS containing 5% FBS was added 100 ul per well for 1 Hr at RT. TMB substrate (KPL, 52-00-00) 100 ul per well after washing and incubate at room temperature for 15 minutes; then stop the development by adding 100 ul stop solution (KPL, 50-85-06). Plate was read at 450 nm. The IC50 was calculated using GraphPad Prism software (GraphPad Software, Inc. San Diego, CA, USA).

| Binder | IC50 |
| --- | --- |
| B1 | 11.3 nM |
| B2 | 2.1 nM |
| B4 | 5.2 nM |
| B5 | 1.3 nM |
| B6 | 1.4 nM |
| B7 | 10 nM |
| B8 | 1.6 nM |
| B9 | 1.9 nM |
| B10 | 2.4 nM |
| B11 | 2.2 nM |
| B12 | 11 nM |

The binders below were run against T4, Human HEVM recombinant protein (Sino …) (assay: competition ELISA, competitor LIGHT-His).
Method: as §1

| Binder | IC50 |
| --- | --- |
| B3 | 369 nM |

What follows are binders tested against T5, His-tagged human HVEM (assay: BLI OctetRed96, mAb captured, 200 nM His-HVEM).
Method: Binding of antibodies to HVEM may also be determined by bio-layer interferometry (BLI) on an OctetRed96@ system (Sartorius). (See http://www.fortebio.com/bli_technology.html for general description of a BLI assay.) For this experiment, murine anti-human HVEM antibodies were captured from culture supernatant using anti-mouse IgG Fc capture and immobilized to dip and read biosensors. Sensors were then dipped into a solution of 200 nM His-tagged human HVEM in phosphate-buffered saline (PBS). Probes were dipped into PBS assay buffer and the dissociation rate (koff) was measured. The association rate (kₒₙ) and affinity (KD) were determined by curve fitting analysis.

| Binder | Kd | koff | kon |
| --- | --- | --- | --- |
| B1 | 7210 nM | 1.15 s⁻¹ | 159000 M⁻¹ s⁻¹ |
| B2 | 35.1 nM | 0.0175 s⁻¹ | 497000 M⁻¹ s⁻¹ |
| B3 | 20.4 nM | 0.00291 s⁻¹ | 143000 M⁻¹ s⁻¹ |
| B4 | 1570 nM | 0.323 s⁻¹ | 206000 M⁻¹ s⁻¹ |
| B5 | 47 nM | 0.0403 s⁻¹ | 858000 M⁻¹ s⁻¹ |
| B6 | 6.9 nM | 0.00266 s⁻¹ | 386000 M⁻¹ s⁻¹ |
| B7 | 11.6 nM | 0.00596 s⁻¹ | 515000 M⁻¹ s⁻¹ |
| B8 | 48.2 nM | 0.0272 s⁻¹ | 565000 M⁻¹ s⁻¹ |
| B9 | 65.8 nM | 0.0167 s⁻¹ | 254000 M⁻¹ s⁻¹ |
| B10 | 11.1 nM | 0.00864 s⁻¹ | 776000 M⁻¹ s⁻¹ |
| B11 | 2.68 nM | 0.00171 s⁻¹ | 639000 M⁻¹ s⁻¹ |
| B12 | 13.9 nM | 0.0216 s⁻¹ | 1.56e+06 M⁻¹ s⁻¹ |
